Test results taken from the nanobody polyreactivity screen of Harvey et al. (2022).

Experiment: yeast display, Sf9 membrane polyspecificity reagent, FACS + sequencing; frameworks hold sequencing errors
Procedure, shortened: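 Genes from sorted yeast were amplified by colony PCR, read by MiSeq 2 × 250 sequencing and filtered on CDR length. These cells carried a synthetic nanobody library in Saccharomyces cerevisiae BJ5465 and were sorted by FACS into low and high (top ~1%) gates on anti-HA and streptavidin fluorescence. Polyreactivity is labelled according to the gate of origin.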

| Sequence | polyreactivity (PSR sort gate) |
| --- | --- |
| QVQLEESGGGLVQAGGNLRLSSAASGSIFSFNAMGCYRQAPGKERELVAAISWRGASTYYADSVKGRFTISRDNAKNTVYLQMNSLKPEDTAVYYCAAESTFILQYSYIYYDGHYDYCGQGTQVTVSS | low polyreactivity |
| QVQLEESGGGLVQAGGRLRLSCAASGGTFRNNAMGWDRQAPGKEREVVAAISSSGTSTYYADSVKGRFTISRDNAKNTVYLQMNSLKPEDTAVYYCNADALGYPWWDHMDYWGQGTQVTVSS | low polyreactivity |
| QVQLEESGGGLVQAGGRLRLSCAASGRTFGRYAMGWDREPPGKERELVAAIRSGGSTYYADSVKGRLTISRDNAKNTVYFQMNSVKQADTAVYYCAADIARHLTGFAYYGLDYWGQGTQVTVSS | low polyreactivity |
| QVQLEESGGGLVQAGGRLRLSCAASGSIFDLNAMGRYRQAPGKERELVAAISQRGTRTYYADSVKGRFTISRDNAKNNVYLQMNSLIPEDTAVYYCAVGNGLSRYVYGDYEYWGQGTQVTVSS | high polyreactivity |
| QVQLEESGGGLVQAGGRLRLSCAASVSIFGVYTMGWYRPAPGKERELVAAIRGVGSTNYADSVKGRFTISRDNAKNTVYLQMKSLKTEDTAVYYCAARYAYGMWGQGTHVTVSS | low polyreactivity |
| QVQLEESGGGLVQAGGSHRLSCAASGIIFSKYAMGWYRPAPGKEREFGAAISQRGGRTYYADSVKGRFTISRDNAKNTVYLQMNSLNTEDTAVYYCAATGTGGVYPLDYGGQGTQVTVSS | high polyreactivity |
| QVQLEESGGGLVQAGGSHRLSCAASGSIFGGNAMGWYRQAPGKERELVAAITQSGGRTYYADSVKGRCTISRDTAKNTVYLQMNSLKPEDTAVYYCNRVYKSQTTDSYPLSYYYWGQGTQVTVSS | high polyreactivity |
| QVQLEESGGGLVQAGGSLRIICADSGINFRYNAMGLYRKAPGKERELVAGIRKRGGSTYYADSVKGRFTISRDNANNTVYLQMNSLKPEDTEVYYCAALCPTTGRNYHSTPYEYWGQGTQVTVSS | high polyreactivity |
| QVQLEESGGGLVQAGGSLRISCAASGFTFKYYVMGWYRQAPGKERFVAAITGSGASTYYADSVKGRFTISRDNAKNTVYLQMNSLKPEDTAVYYCNAVYYAGRYRYDYWGQGTQVTVSS | high polyreactivity |
| QVQLEESGGGLVQAGGSLRISCAASVRTFKYYAMGWNRQAPGKETELVAAISWSGSSTSYADSVKGRFTISRDHAKNTVYLQMNSLKPEDTAVYYCAAATYRQFTGTYDYWGQGTQVTVSS | high polyreactivity |
| QVQLEESGGGLVQAGGSLRLICPASGRTFIRKAMGRYRQAPGKERELVASIRWSGGSTYYADSVKGRFTISRDNAKNTVYLQMNSLKTEDTAVYYCAASRWRPLERGTTWLHDYWGQGSQVTVSS | low polyreactivity |
| QVQLEESGGGLVQAGGSLRLSCAASARTIFGYAMGWYRQAPGKERELVAAINWGGASTYYADSVKGRFTISRDNAKNTVYLQMNSLKPEDTAVYYCAADSVPSRPTYGRYDYWGQGTQVTVSS | low polyreactivity |
| QVQLEESGGGLVQAGGSLRLSCAASGAIFYAYAMGCYRQATGKEREFVAAITRRGGNTYYADSVKGRFTISRDNAKNTVYVQMNSLKPEDTEVYYSAADAGGGTFDYWGHGTQVTVSS | low polyreactivity |
| QVQLEESGGGLVQAGGSLRLSCAASGFIFAQNAMGWYRQAPGKERELVARIRVSGTRTYYADSVKGRFTISRDNAKNTVYLQMNSLKQEDTAVYYCAAVPYTYDFGYKRFYWGQGTQVTVSS | high polyreactivity |
| QVQLEESGGGLVQAGGSLRLSCAASGFIFDYYMGWYIQAPGKERELVARISYTGGSTYYADCVKGRFTISRDNAKNTVYLQMNSLKPEDTAVYYCATRGAEAERFASYDFDYWGQGTQVTVSS | low polyreactivity |
| QVQLEESGGGLVQAGGSLRLSCAASGFIFSRNAMGWYRQAPGKERELVAAITGSGARTYYADSVKGRFTISRDNAKNTVYLQMNSLKPEDTAVYYCNADARGGIYFRGVKFDYWGLGTQVTVSS | high polyreactivity |
| QVQLEESGGGLVQAGGSLRLSCAASGFIFYRYAMGWYRQAPGKERELVAALTTGGDRTYYADSVKGRFTISRDNAKNTVYLQMNSLKPEDPAVYYCATLWSYYYATIYLDGYDYWGQGTQVTVSS | high polyreactivity |
| QVQLEESGGGLVQAGGSLRLSCAASGFISFAYAMGWYIQAPGKERELVAGISRSGDSTYYADSVKGRFTISRDNAKNTVYLQMNSLKPEDTAVYYCAARQVDWFDYTTAQVGSYKVNYWGQGTQVTVSS | low polyreactivity |
| QVQLEESGGGLVQAGGSLRLSCAASGFTFARNGMGWYRQAPVKESEFVAAITRSGGRTYYADSVKGRFTISRDNAKNTVYLQMNSLKPEDTAVYYCAAATSYGKSEYDYWGQGTQVTVSS | high polyreactivity |
| QVQLEESGGGLVQAGGSLRLSCAASGFTFDGYAMGWYRPAPGKERELVAAITSSGGSTYYADSVKGRFTISRDNTKNTVYLQMNSLKPEDTAVYYCNAVYYYGYYYYWTEFNYWGQGTQVTVSS | high polyreactivity |
| QVQLEESGGGLVQAGGSLRLSCAASGFTFRVYAMGWYRQAPGKERELVAAISSGGSTNYADSVKGRFTISRDNAKNTVYLQMNSLKPEDTAVYYCAARQRYYSERPQYSGLYYWGQGTQVTVSS | high polyreactivity |

| Sequence | polyreactivity (PSR sort gate) |
| --- | --- |
| QVQLEESGGGLVQAGGSLRLSCAASGFTFTDYALGWYRQAPGTERELVAVITYDSTYYADPVKGRFTISRDNAKNTVYLQMNSLNPEDTAVYFCAADSYDWGDFDYWGQGTQVTVSS | low polyreactivity |
| QVQLEESGGGLVQAGGSLRLSCAASGFTFTYYAMGWYRQAPGKERELVASISYSGGSTYYADSVKGRFTISRDNAKNTVYLQMNSLKPEDTAVYYGAARTRHVHYGYWGQVTQVTVSS | high polyreactivity |
| QVQLEESGGGLVQAGGSLRLSCAASGFTFYRYAMGWYRQAPGKERELVAAITWSGGSTYYADSVKGRFTISRDNAKNTVYLQMNSLKPEDTGVYYCNAAAYYPTNYGGYLFEYWGQGTQVTVSS | low polyreactivity |
| QVQLEESGGGLVQAGGSLRLSCAASGFTLPLYAMGWYIQAPGKERELVAAISSGGGRTYYADSVKGRFTISPDYEKNSVYLQMNSLKPEDTAVYYCNVDRWWLGRYKFYYWGQGTQVTVSS | high polyreactivity |
| QVQLEESGGGLVQAGGSLRLSCAASGGTLRYYVMGSYRQAPGKERELVAAISWSGDSTYYADSVKGRFTISRDNAKNTVYLQMNSLKPEDTAVYYCAATYYLTYYYGQANHGYDYWGQGTQVTVSS | low polyreactivity |
| QVQLEESGGGLVQAGGSLRLSCAASGIFTRYAMGWYRQAPGKERELVAAISRGGGSTYYADTVKGRFTISRDNAKNTVYLLMNSLKPEDTAVYYCYTYKRPRSPGPKFYYWGQGTQVTVSS | high polyreactivity |
| QVQLEESGGGLVQAGGSLRLSCAASGIIFGTNAMGWYRQAPGKERELVATISWRGGSTYYADSVKGRFTISRDNAKNTVYLQMTSLKPEDTAVYYCAAGASGQRAYRRYYWGQGTQVTVSS | high polyreactivity |
| QVQLEESGGGLVQAGGSLRLSCAASGIIFSGNAMGWYRQAPGKERELVAANTRSGGTTYYADSVKGRFTISRDNAKNTVYLQMNSLKPEDTAVYYCAASYPLYVFYVSGYDYWGQGTQVTVSS | low polyreactivity |
| QVQLEESGGGLVQAGGSLRLSCAASGIIFSGYAMGWYRQAPGKERELVASIRSGSNTYYADSVKGRFTISRDNAKNTVYLQMISLKPEDTAVYYCAARVVPATFRFIRYPHPYYYWGQGTQVTVSS | low polyreactivity |
| QVQLEESGGGLVQAGGSLRLSCAASGIIFSIYAMGLYRKAPGKERELVAAITYSGGRTYYADSVKGRFTISRDNAKNTVYLQMNSLKPEDTAVYYCAAVVYGEYYWGQGTQVTVSS | high polyreactivity |
| QVQLEESGGGLVQAGGSLRLSCAASGIISTVYAMGWYRQAPGKERELVAAISCSGGSTYYADSLKGSFTISRDNENNTVYLQMNSLKPEDTAVYYCSKGYQYQGNSYGYWGQGTQVTVSS | low polyreactivity |
| QVQLEESGGGLVQAGGSLRLSCAASGINFQGNARGWYRQAPGKERELVASITAGGDTTYYADSVKGRFTISRDNAKNTFYLQLNSVKPEDSEVYDCAVYSWLDADDSYPDSILVDYWGQGTQVTVSS | low polyreactivity |
| QVQLEESGGGLVQAGGSLRLSCAASGITIYYYAMGWYRQAPGKERELVAAISRSAGSTSYADSVKGRFTISRDNAKNTVYLQMNSLKTEDNAVYYCAAQGWHLDSQWQLYNYYYWGQGTQVTVSS | high polyreactivity |
| QVQLEESGGGLVQAGGSLRLSCAASGLIFARNAMGWYRQAPGKERELVAAISKRGGSTFYADSVKGRFTISRDNAKNTVYLQMKSLNPEDTAVYYCNARSSETWHGDYWGQGTQVTVSS | high polyreactivity |
| QVQLEESGGGLVQAGGSLRLSCAASGLIFQVYALGWYRQAPGKERELVASISWNGGSTYYADSVKGRFTISRDNAKNTVYLQMNSLKPEDTAVYYCNKYPVSLWYYSKDYTYDYWGQGTQVTVSS | low polyreactivity |
| QVQLEESGGGLVQAGGSLRLSCAASGLILRTYGMGWYRQAPGKERELVAVISSGGSTYYADSVKGRFTISRDNAKNTVYLQMNSLKPEDTAVYYCAVRSSWYEGDYWGQGTQVTVSS | low polyreactivity |
| QVQLEESGGGLVQAGGSLRLSCAASGLTFGDYTMGWYRQAPWKERELVAAITSRGGRTYYADSVKGRFTISRDNAKNTVYLQMNSLTPEDTAVYYCAADDLRIKRVGFDYWGQGTQVTVSS | high polyreactivity |
| QVQLEESGGGLVQAGGSLRLSCAASGLTFRSYAMGWYRQAPGTEREFVAAITGSGDTTYYAVSVKGRFTISRDNALNTVYLQMNSLNPEETAGYYCNADRDYLWITLYEYWGQGTQLTVSS | high polyreactivity |
| QVQLEESGGGLVQAGGSLRLSCAASGLTFVYNAMGWYRQAPGKERELVAAISRVGSTNYADSVKGRFTISRDNAKNTVYLQMNSLKPEDTAVYYCNAERSRRYSGWVNYAPLNYWGQGTQVTVSS | low polyreactivity |
| QVQLEESGGGLVQAGGSLRLSCAASGLTLGRYAMGWYRPAPGKERELVAVITGGGSTNYADSVKGRFTISRDNAKNTVYLQMNSLKPEDTAVYYCAVRGGIFQTLSTWYRYYYWGQGTQVTVSS | high polyreactivity |
| QVQLEESGGGLVQAGGSLRLSCAASGRICAYYTMGWYRQAPGKERELVASITSGSSTNYADSVKGRFTISRDNAKNTVYLQMNSLKPEDTAVYYSAAPRGSYVRTRYRGYVVQSNYWGQGTQVTVSS | high polyreactivity |
